Target: T1, histone H4 (Xenopus laevis) (Xenopus laevis, UniProt P62799 1-103)
T1 construct: histone H4, Xenopus laevis, recombinant; In the cryo-EM structure H4 stood within the nucleosome m2; source: bought: Histone Source Protein Expression and Purification Facility, Colorado State University (purified recombinant)
Test: cryo-EM structure; modified nucleosomes at 1 µM, ALC1 at 6 µM, ADP-BeF3 at 1 mM, incubated 60 minutes on ice before vitrification
Settings: both partners purified

- binding result: binds
B1: ALC1 (Amplified in Liver Cancer 1), wild-type construct (16-879) (enzyme)
chain: FLLRLHTEGRAEAARVQEQDLRQWGLTGIHLRSYQLEGVNWLAQRFHCQNGCILGDEMGLGKTCQTIALFIYLAGRLNDEGPFLILCPLSVLSNWKEEMQRFAPGLSCVTYAGDKEERACLQQDLKQESRFHVLLTTYEICLKDASFLKSFPWSVLVVDEAHRLKNQSSLLHKTLSEFSVVFSLLLTGTPIQNSLQELYSLLSFVEPDLFSKEEVGDFIQRYQDIEKESESASELHKLLQPFLLRRVKAEVATELPKKTEVVIYHGMSALQKKYYKAILMKDLDAFENETAKKVKLQNILSQLRKCVDHPYLFDGVEPEPFEVGDHLTEASGKLHLLDKLLAFLYSGGHRVLLFSQMTQMLDILQDYMDYRGYSYERVDGSVRGEERHLAIKNFGQQPIFVFLLSTRAGGVGMNLTAADTVIFVDSDFNPQNDLQAAARAHRIGQNKSVKVIRLIGRDTVEEIVYRKAASKLQLTNMIIEGGHFTLGAQKPAADADLQLSEILKFGLDKLLASEGSTMDEIDLESILGETKDGQWVSDALPAAEGGSRDQEEGKNHMYLFEGKDYSKEPSKEDRKSFEQLVNLQKTLLEKASQEGRSLRNKGSVLIPGLVEGSTKRKRVLSPEELEDRQKKRQEAAAKRRRLIEEKKRQKEEAEHKKKMAWWESNNYQSFCLPSEESEPEDLENGEESSAELDYQDPDATSLKYVSGDVTHPQAGAEDALIVHCVDDSGHWGRGGLFTALEKRSAEPRKIYELAGKMKDLSLGGVLLFPVDDKESRNKGQDLLALIVAQHRDRSNVLSGIKMAALEEGLKKIFLAAKKKKASVHLPRIGHATKGFNWYGTERLIRKHLAARGIPTYIYYFPRSK
notes: human ALC1/CHD1L, residues 16-879; The cryo-EM methods call the protein ALC1^fl, while the only construct described is 16-879; also called CHD1L; ALC1/CHD1L; source: E. coli Rosetta 2 (DE3), purified (HisTrap, Q/SP ion exchange, Superdex 200)

From publication PMC10837151, “Asymmetric nucleosome PARylation at DNA breaks mediates directional nucleosome sliding by ALC1” (Nature Communications, 2024)
